Reference: US20180264110A1

Assays:
[1] = molecular target: BTLA overexpressed on 293T cells (human) (UniProt Q7Z6A9); assay: FACS, 293T cells overexpressing BTLA; secondary antibody alone (background control)
[2] = molecular target: BTLA overexpressed on 293T cells (human) (UniProt Q7Z6A9); assay: FACS, 293T cells overexpressing BTLA

Sequence of BTLA overexpressed on 293T cells (human) (Q7Z6A9 31-289 limits assumed): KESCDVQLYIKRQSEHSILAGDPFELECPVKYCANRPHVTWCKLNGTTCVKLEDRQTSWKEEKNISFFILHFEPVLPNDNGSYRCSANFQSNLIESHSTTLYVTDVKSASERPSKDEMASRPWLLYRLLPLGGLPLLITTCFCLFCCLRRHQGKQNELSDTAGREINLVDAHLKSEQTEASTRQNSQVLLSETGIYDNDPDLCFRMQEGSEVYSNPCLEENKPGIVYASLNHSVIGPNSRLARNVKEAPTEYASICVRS

Row | Substance | % Gate [1] | MR [1] | % Gate [2] | MR [2]
1 | 2′Ab only (antibody) | 10.1% | 16.6 | – | –
2 | BTLA (MIH26) (antibody) | – | – | 91.3% | 2850
3 | Isotype (antibody) | – | – | 5.08% | 11.7
